Results reported in patent US20200268901A1 (Bristol-Myers Squibb, published 2020).
Changes are numbered by the printed parent chain. Names may count otherwise. “And” between values parts separate entries of the source, which are not always exact repeats. Equal values may be shown once. Read-outs that look alike come from different tables or passages of the source.

T1: N-hCD73-his (N-terminal domain of human CD73, residues 26-336) (human, UniProt P21589 26-336)
T1 construct: not shown: his tag
T1 sequence (looked up): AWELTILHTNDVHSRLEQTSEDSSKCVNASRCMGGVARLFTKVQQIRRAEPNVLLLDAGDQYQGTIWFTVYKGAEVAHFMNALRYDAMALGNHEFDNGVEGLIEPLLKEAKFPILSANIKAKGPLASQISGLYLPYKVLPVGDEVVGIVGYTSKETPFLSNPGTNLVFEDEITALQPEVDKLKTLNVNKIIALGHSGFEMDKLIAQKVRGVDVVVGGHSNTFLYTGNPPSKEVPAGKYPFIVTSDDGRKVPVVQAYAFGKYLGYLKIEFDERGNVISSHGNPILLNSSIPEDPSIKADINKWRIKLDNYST

T2: human CD73 on Calu6 cells (human, UniProt P21589 27-549)
T2 sequence (looked up): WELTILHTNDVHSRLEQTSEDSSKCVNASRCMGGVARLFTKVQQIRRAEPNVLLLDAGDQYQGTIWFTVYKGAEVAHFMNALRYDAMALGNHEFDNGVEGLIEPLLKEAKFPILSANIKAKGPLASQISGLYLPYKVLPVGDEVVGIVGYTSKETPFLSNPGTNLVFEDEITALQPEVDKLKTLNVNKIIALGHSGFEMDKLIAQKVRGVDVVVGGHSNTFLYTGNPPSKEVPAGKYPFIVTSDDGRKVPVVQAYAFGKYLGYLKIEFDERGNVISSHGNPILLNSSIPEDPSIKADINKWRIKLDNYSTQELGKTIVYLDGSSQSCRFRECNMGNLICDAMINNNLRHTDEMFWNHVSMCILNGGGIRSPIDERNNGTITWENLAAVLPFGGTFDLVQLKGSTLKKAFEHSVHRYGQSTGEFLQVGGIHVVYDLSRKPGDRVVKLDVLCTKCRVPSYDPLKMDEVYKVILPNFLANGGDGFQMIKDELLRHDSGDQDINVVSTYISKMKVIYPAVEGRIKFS

T3: human GITR on cells (activated human T cells; 3A9-hGITR cells) (human, UniProt Q9Y5U5 26-241)
T3 sequence (looked up): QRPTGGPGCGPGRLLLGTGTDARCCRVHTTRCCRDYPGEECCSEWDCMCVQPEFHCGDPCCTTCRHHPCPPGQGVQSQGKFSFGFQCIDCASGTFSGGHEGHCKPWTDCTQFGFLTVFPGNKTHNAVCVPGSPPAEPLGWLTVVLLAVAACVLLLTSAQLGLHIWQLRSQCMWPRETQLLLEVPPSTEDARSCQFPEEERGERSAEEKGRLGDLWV

B1: 11F11 (antibody, human IgG2, kappa, V domains shown)
VH: QVQLVESGGGVVQPGRSLRLSCATSGFTFSNYGMHWVRQAPGKGLEWVAVILYDGSNKYYPDSVKGRFTISRDNSKNTLYLQMNSLRAEDTAVYYCARGGSSWYPDSFDIWGQGTMVTVSS
VL: DIQMTQSPSSLSASVGDRVTITCRASQGISSWLAWYQQKPEKAPKSLIYAASSLQSGVPSRFSGSGSGTDFTLTISSLQPEDFATYYCQQYNSYPLTFGGGTKVEIKR
notes: anti-CD73, IgG2; also called 11F11(IgG2)
B2: CD73.4-IgG2.3G1.1f-KH (antibody)
heavy: QVQLVESGGGVVQPGRSLRLSCAASGFTFSNYGMHWVRQAPGKGLEWVAVILYDGSNKYYPDSVKGRFTISRDNSKNTLYLQMNSLRAEDTAVYYCARGGSSWYPDSFDIWGQGTMVTVSSASTKGPSVFPLAPCSRSTSESTAALGCLVKDYFPEPVTVSWNSGALTSGVHTFPAVLQSSGLYSLSSVVTVPSSNFGTQTYTCNVDHKPSNTKVDKTVERKSCVECPPCPAPPVAGPSVFLFPPKPKDTLMISRTPEVTCVVVDVSHEDPEVKFNWYVDGVEVHNAKTKPREEQYNSTYRVVSVLTVLHQDWLNGKEYKCKVSNKALPSSIEKTISKAKGQPREPQVYTLPPSREEMTKNQVSLTCLVKGFYPSDIAVEWESNGQPENNYKTTPPVLDSDGSFFLYSKLTVDKSRWQQGNVFSCSVMHEALHNHYTQKSLSLSPGK
light: not shown
notes: also called CD73.4-IgG2-C219S-IgG1.1f; CD73.4-IgG2CS-IgG1.1f
B3: CD73.4-IgG2.5 (antibody)
heavy: QVQLVESGGGVVQPGRSLRLSCAASGFTFSNYGMHWVRQAPGKGLEWVAVILYDGSNKYYPDSVKGRFTISRDNSKNTLYLQMNSLRAEDTAVYYCARGGSSWYPDSFDIWGQGTMVTVSSASTKGPSVFPLAPSSRSTSESTAALGCLVKDYFPEPVTVSWNSGALTSGVHTFPAVLQSSGLYSLSSVVTVPSSNFGTQTYTCNVDHKPSNTKVDKTVERKCCVECPPCPAPPVAGPSVFLFPPKPKDTLMISRTPEVTCVVVDVSHEDPEVQFNWYVDGVEVHNAKTKPREEQFNSTFRVVSVLTVVHQDWLNGKEYKCKVSNKGLPAPIEKTISKTKGQPREPQVYTLPPSREEMTKNQVSLTCLVKGFYPSDIAVEWESNGQPENNYKTTPPMLDSDGSFFLYSKLTVDKSRWQQGNVFSCSVMHEALHNHYTQKSLSLSPGK
light: not shown
B4: CD73.4-IgG2.5G1.1f-KH (antibody)
heavy: B2 heavy with C135S, S223C
light: not shown
B5: CD73.10-IgG2-C219S (antibody)
heavy: QVQLVESGGGVVQPGRSLRLSCAASGFTFSNYGMHWVRQAPGKGLEWVAVIWYDESNKYYPDSVKGRFTISRDNSKNTLYLQMNSLRAEDTAVYYCARGGSSWYPDSFDIWGQGTMVTVSSASTKGPSVFPLAPCSRSTSESTAALGCLVKDYFPEPVTVSWNSGALTSGVHTFPAVLQSSGLYSLSSVVTVPSSNFGTQTYTCNVDHKPSNTKVDKTVERKSCVECPPCPAPPVAGPSVFLFPPKPKDTLMISRTPEVTCVVVDVSHEDPEVQFNWYVDGVEVHNAKTKPREEQFNSTFRVVSVLTVVHQDWLNGKEYKCKVSNKGLPAPIEKTISKTKGQPREPQVYTLPPSREEMTKNQVSLTCLVKGFYPSDIAVEWESNGQPENNYKTTPPMLDSDGSFFLYSKLTVDKSRWQQGNVFSCSVMHEALHNHYTQKSLSLSPG
light: not shown
notes: anti-CD73; also called CD73.10-IgG2CS
B6: CD73.10-IgG2-C219S-IgG1.1 (antibody)
heavy: B5 heavy with Q274K, F296Y, F300Y, V309L, G327A, A330S, P331S, T339A
light: not shown
notes: anti-CD73; also called CD73.10-IgG2CS-IgG1.1f
B7: anti-GITR-IgG2 (antibody)
heavy: QVQLVESGGGVVQPGRSLRLSCAASGFTFSSYGMHWVRQAPGKGLEWVAVIWYEGSNKYYADSVKGRFTISRDNSKNTLYLQMNSLRAEDTAVYYCARGGSMVRGDYYYGMDVWGQGTTVTVSSASTKGPSVFPLAPCSRSTSESTAALGCLVKDYFPEPVTVSWNSGALTSGVHTFPAVLQSSGLYSLSSVVTVPSSNFGTQTYTCNVDHKPSNTKVDKTVERKCCVECPPCPAPPVAGPSVFLFPPKPKDTLMISRTPEVTCVVVDVSHEDPEVQFNWYVDGVEVHNAKTKPREEQFNSTFRVVSVLTVVHQDWLNGKEYKCKVSNKGLPAPIEKTISKTKGQPREPQVYTLPPSREEMTKNQVSLTCLVKGFYPSDIAVEWESNGQPENNYKTTPPMLDSDGSFFLYSKLTVDKSRWQQGNVFSCSVMHEALHNHYTQKSLSLSPGK
light: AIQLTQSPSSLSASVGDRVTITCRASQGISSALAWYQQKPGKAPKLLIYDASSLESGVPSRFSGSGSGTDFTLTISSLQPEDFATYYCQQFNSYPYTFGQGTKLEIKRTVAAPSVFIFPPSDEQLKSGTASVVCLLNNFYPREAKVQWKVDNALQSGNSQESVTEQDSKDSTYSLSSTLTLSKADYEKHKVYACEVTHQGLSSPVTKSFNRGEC
B8: CD73.4-IgG2.5-plusTHT (antibody)
heavy: QVQLVESGGGVVQPGRSLRLSCAASGFTFSNYGMHWVRQAPGKGLEWVAVILYDGSNKYYPDSVKGRFTISRDNSKNTLYLQMNSLRAEDTAVYYCARGGSSWYPDSFDIWGQGTMVTVSSASTKGPSVFPLAPSSRSTSESTAALGCLVKDYFPEPVTVSWNSGALTSGVHTFPAVLQSSGLYSLSSVVTVPSSNFGTQTYTCNVDHKPSNTKVDKTVERKCCVETHTCPPCPAPPVAGPSVFLFPPKPKDTLMISRTPEVTCVVVDVSHEDPEVQFNWYVDGVEVHNAKTKPREEQFNSTFRVVSVLTVVHQDWLNGKEYKCKVSNKGLPAPIEKTISKTKGQPREPQVYTLPPSREEMTKNQVSLTCLVKGFYPSDIAVEWESNGQPENNYKTTPPMLDSDGSFFLYSKLTVDKSRWQQGNVFSCSVMHEALHNHYTQKSLSLSPGK
light: not shown

Experiments:
[1] = molecular target: T1, N-hCD73-his (N-terminal domain of human …); experiment: SPR (Biacore T100), mAb captured on protein A, N-hCD73-his analyte
Protocol: The affinity of the antibodies for human CD73 was measured to determine whether the change of the constant region affects them. The affinities were determined by Surface Plasmon Resonance (SPR) as follows. […] For these experiments, protein A (Pierce) was immobilized to a density of 3000-4000 RU on flow cells 1-4 of a CM5 sensor chip (GE Healthcare) using standard ethyl(dimethylaminopropyl) carbodiimide (EDC)/N-hydroxysuccinimide (NHS) chemistry, with ethanolamine blocking, in a running buffer of 0.01 M HEPES pH 7.4, 0.15 M NaCl, 3 mM EDTA, 0.005% v/v tween 20. […] The running buffer for the kinetic experiments was 10 mM sodium phosphate, 130 mM sodium chloride, 0.05% tween 20, pH 7.1. The surfaces were regenerated after each cycle using two 30 s pulses of 10 mM glycine pH 1.5 at a flow rate of 30 μl/min. Sensogram data was double-referenced and then fitted to a 1:1 Langmuir model using Biacore T100 evaluation software v2.0.4, to determine the association rate constant (ka), the dissociation rate constant (kd), and the equilibrium dissociation constant (KD).

[2] = molecular target: T2, human CD73 on Calu6 cells; experiment: cell-based or functional assay
[3] = molecular target: T2, human CD73 on Calu6 cells; experiment: cell-based or functional assay; remark: listed apart in the source
[4] = molecular target: T2, human CD73 on Calu6 cells; experiment: cell-based or functional assay; remark: listed apart in the source
[5] = molecular target: T2, human CD73 on Calu6 cells; experiment: cell-based or functional assay; remark: listed apart in the source
[6] = molecular target: T3, human GITR on cells (activated human T …); experiment: cell-based or functional assay

| Binder | Kd [1] | koff [1] | kon [1] | EC50 (nM) of CD73 internalization, Calu6 cells, 2 h [2] | Ymax of CD73 internalization (% of 100 nM 11F11) [2] | T1/2 (hr) of CD73 internalization, Calu6 cells [4] | T1/2 (hr) of CD73 internalization, NCI-H292 cells [4] | Ymax (%) of CD73 internalization, Calu6 cells [4] | Ymax (%) of CD73 internalization, NCI-H292 cells [4] | other results |
| --- | --- | --- | --- | --- | --- | --- | --- | --- | --- | --- |
| B1 | 1.6 nM and 0.56 nM | 0.00042 s⁻¹ and 0.00016 s⁻¹ | 260000 M⁻¹ s⁻¹ and 290000 M⁻¹ s⁻¹ | 0.58 nM | 98% |  |  |  |  |  |
| B2 |  |  |  |  |  | 0.351 h | 0.276 h | 81% | 90.3% | T1/2 (hr) of CD73 internalization, Calu6 cells [3]: 0.566 h; T1/2 (hr) of CD73 internalization, NCI-H292 cells [3]: 0.263 h; T1/2 (hr) of CD73 internalization, NCI-H1437 cells [3]: 0.316 h; T1/2 (hr) of CD73 internalization, NCI-H1437 cells (no wash) [3]: 0.342 h; T1/2 (hr) of CD73 internalization, SNU-C1 cells [3]: 0.495 h; T1/2 (hr) of CD73 internalization, SNU-C1 cells (no wash) [3]: 1.02 h; Ymax (%) of CD73 internalization, Calu6 cells [3]: 76.8%; Ymax (%) of CD73 internalization, NCI-H292 cells [3]: 77.6% |
| B3 |  |  |  |  |  | 0.348 h | 0.306 h | 79% | 89.6% |  |
| B4 |  |  |  |  |  | 0.353 h | 0.299 h | 79.6% | 90.9% |  |
| B5 | 6.2 nM and 8.3 nM | 0.0014 s⁻¹ and 0.0018 s⁻¹ | 220000 M⁻¹ s⁻¹ | 0.67 nM | 99% |  |  |  |  | % internalization, Calu6 cells [5]: 91%; % internalization, H228 cells [5]: 93%; % internalization, H2030 cells [5]: 85%; % internalization, HCC15 cells [5]: 91%; T1/2 min of internalization, Calu6 cells [5]: 3 min; T1/2 min of internalization, H228 cells [5]: 9.7 min; T1/2 min of internalization, H2030 cells [5]: 3.3 min; T1/2 min of internalization, HCC15 cells [5]: 2.6 min |
| B6 | 5.7 nM and 6.8 nM | 0.0014 s⁻¹ and 0.0016 s⁻¹ | 240000 M⁻¹ s⁻¹ and 230000 M⁻¹ s⁻¹ | 0.87 nM | 99% |  |  |  |  | % internalization, Calu6 cells [5]: 91%; % internalization, H228 cells [5]: 92%; % internalization, H2030 cells [5]: 87%; % internalization, HCC15 cells [5]: 91%; T1/2 min of internalization, Calu6 cells [5]: 3.1 min; T1/2 min of internalization, H228 cells [5]: 9.4 min; T1/2 min of internalization, H2030 cells [5]: 4.3 min; T1/2 min of internalization, HCC15 cells [5]: 3 min |
| B7 |  |  |  |  |  |  |  |  |  | EC50 (nM), phospho-p65 NFkB signaling, CD4+ T cells [6]: 12.8 nM; EC50 (nM), phospho-p65 NFkB signaling, CD8+ T cells [6]: 9 nM; Emax (%), phospho-p65 NFkB signaling, CD4+ T cells [6]: 69%; Emax (%), phospho-p65 NFkB signaling, CD8+ T cells [6]: 85% |
| B8 |  |  |  |  |  | 0.287 h | 0.257 h | 80.2% | 89.6% |  |
